Reference: PMC6700365, “Expression and Characterization of Carotenoid Cleavage Oxygenases From Herbaspirillum seropedicae and Rhodobacteraceae bacterium Capable of Biotransforming Isoeugenol and 4-Vinylguaiacol to Vanillin” (Frontiers in Microbiology, 2019)

B1: HsCCO (Herbaspirillum seropedicae) (protein)
chain: MSMQYPATPEFQGMYRPSRVEASVQALEVVGQLPAQLQGCFYQVAPDPAYPPMLGQDIFFNGDGMVSAFRFGQGQVSLTRRYVQTERLKAQRQAGRSLNGIYRNIYTNAPEAASDNTTANTTVIKHAGVLLALKEDSLPYAMDPVTLETRGLWDFHGQVKSATFTAHPKICPQSGSMLCFAYEAKGDGTPDIAYYEIDAAGKLIRETWFQAPYAAMIHDFAVTENYVIFPIIPLTVDVERMKRGGQHFQWQPDLPQLFGILPRAGDAADVRWFYGPADGFQGHTLNAYELGRKLILDMPVTSGNVFYFFPQADGFVPSPETLKSGLARWTFDLDADNDQVMPEPLTQFPCEFPRCDERYSGRPYQHGFMLAFDPTLPFDAAALGAPPFQFFNQLAHVNVRTGETRTWYAGDAHCFQEPVFVPRSADAPEGDGFLLSLLNDLRSGATELVILDTHDLSAGPVARVQIPLRMRMSLHGNWSSD
notes: codon-optimized gene, NdeI/XhoI in pET-29a(+), His-tagged, E. coli BL21(DE3), Ni-NTA, about 55 kDa on SDS-PAGE
B2: RbCCO (Paracoccaceae bacterium) (protein)
chain: MTRPFPKTPEFSGSLYRPARFEGSVFDLEVEGRVPEDIHGTFFQVAPDPQFPPMRGNDIFFNGDGAVHAFRFANGAVDFQRRYVMTDRLKAQRAERESLFGLYRNGYTNDPRADGVHMGTANTNVVQHNGRLLALKEDSPPYALDPVTLETHGLFDFDGQLTSPTFTAHPKFDPETGAMLCFGYEAKGEATPDIVYYEIDSQGRKQREIWLRGPYAAMIHDFAVTRNYIIFPLMPLTPDLDRIRKGGNHFEWQPGLEQVFGVLPRDGDGTDVRWFTAPNGFQGHTLNAFDDGRGRIFVDMPVTDGNIFYFFPQSDGHVPPPETLSSRMMRWTFDMNNPGNALSMAPITDFACEFPKCDPRYSGHEYRHGFVIGMDMTRPFDAERLGAPPFQFFNLLSHVDVATRRVKSWFADAQTCFQEPVFVPRSANAPEGEGWVIALANRLVDQTTDLVILDAQHMDEGPVAVVHLPVRLRMSLHGSWVPAAA
notes: codon-optimized gene, BamHI/XhoI in pET-29a(+), His-tagged, co-expressed with GroEL/GroES (pGro7) in E. coli BL21(DE3), Ni-NTA, about 55 kDa on SDS-PAGE

Legend:
Assay in all cases: HPLC of vanillin formed
HPLC of vanillin formed [1] = substrate: C=Cc1ccc(O)c(OC)c1; type: biochemical, Herbaspirillum seropedicae; conditions: measured under optimal conditions (pH 7.0, 40 °C), 10% glycerol
From the text: (§1) HPLC of vanillin formed on HsCCO

HPLC of vanillin formed [2] = substrate: CC=Cc1ccc(O)c(OC)c1; type: biochemical, Herbaspirillum seropedicae; conditions: measured under optimal conditions (pH 7.0, 40 °C), 10% glycerol
From the text: as §1

HPLC of vanillin formed [3] = substrate: C=Cc1ccc(O)c(OC)c1; type: biochemical, Paracoccaceae bacterium; conditions: measured under optimal conditions (pH 9.0, 35 °C), 10% glycerol
From the text: (§2) HPLC of vanillin formed on RbCCO

HPLC of vanillin formed [4] = substrate: CC=Cc1ccc(O)c(OC)c1; type: biochemical, Paracoccaceae bacterium; conditions: measured under optimal conditions (pH 9.0, 35 °C), 10% glycerol
From the text: as §2

Protein	Km (HPLC of vanillin formed [1]) [µM]	Vmax (HPLC of vanillin formed [1]) [µmol/min/mg]	Km (HPLC of vanillin formed [2]) [µM]	Vmax (HPLC of vanillin formed [2]) [µmol/min/mg]	Km (HPLC of vanillin formed [3]) [µM]	Vmax (HPLC of vanillin formed [3]) [µmol/min/mg]	Km (HPLC of vanillin formed [4]) [µM]	Vmax (HPLC of vanillin formed [4]) [µmol/min/mg]
B1	1650	0.0279	1550	0.0741				
B2					850	0.02	2240	0.0765
